Experimental data reported in patent US5130300A, “Method for enhancing growth of mammary parenchyma” (Monsanto Company, priority 1987, dated 1992).

Tests used:
[1] = tested on: Quarter-Udders in Pregnant Beef Cattle; assay: Intramammary infusion of ovine prolactin, quarter-udder weights and DNA (Comparative Examples); type: in vivo, cross-bred beef cows
Description: 16 pregnant, non-lactating, cross-bred beef cows in their last 30-105 days of gestation were divided into 2 groups and tested for the effects of intramammary infusion using the procedures of Examples 25-28 except that instead of a prostaglandin, each treatment infusion contained either 2 mg (Group 1) or 10 mg (Group 2) of ovine prolactin obtained from Sigma Chemical Co., St. Louis, Mo. (Lot No. 26F-0076) in 10 ml of an emulsion of 0.9% saline containing 0.5% Tween-20 in sterile sesame oil containing 5% Arlacel A (3:2 oil: saline). Results are in Tables 22-23.

[2] = tested on: Quarter-Udders in Pregnant Holstein Heifers; assay: Intramammary infusion, milk production per udder side in first 30 days after parturition (Examples 23-24, 42-43); type: in vivo
Description: 18 pregnant Holstein heifers within their last 40-60 days of expected calving were housed in a free-stall facility, fed a ration of alfalfa hay and pelleted concentrate and administered 10 ml of an excipient (sterile sesame oil) into each quarter-udder by intramammary infusion through the steak canal every third day for the number of treatments shown below. The heifers in Groups 1 and 3 were treated no later than their fifth day before parturition; treatments of those in Groups 2 and 4 were continued into their last five days. Treatments containing a mitogenic substance were administered to both quarter-udders on one side of each animal. Excipient only was administered to both quarter-udders on the opposite side of that animal. All infusions were carried out with a Jorgensen laboratories infusion canula of the kind used in Examples 1-2. Each teat was sprayed with 70% ethanol and wiped dry prior to treatment, and dipped with an iodine solution following treatment. These animals were milked normally each a.m. and p.m. for the first 30 days after parturition, with milk production recorded separately for each quarter-udder. […] Shown in Table 21 are the milk production results obtained with the heifers of Group 3 in Examples 23-24. On average, milk production by the half-udders that had been treated in Group 4 of Examples 23-24 slightly exceeded (2%, p<0.4) that of their control half-udders.

[3] = tested on: Quarter-Udders in Pregnant Beef Cows; assay: Intramammary infusion of BST, quarter-udder weights and DNA (Examples 40-41); type: in vivo, cross-bred beef cows; conditions: for DNA, % Increase, (A-B)/B / DNA, Mean Increase (A-B) / Dry Fat-Free Weight, % Increase, (A-B)/B / Dry Fat-Free Weight, Mean Increase (A-B) / Dry Weight, % Increase, (A-B)/B / Dry Weight, Mean Increase (A-B) / Wet Weight, % Increase, (A-B)/B / Wet Weight, Mean Increase (A-B): B = excipient only
Description: 24 pregnant, non-lactating, cross-bred beef cows in their last 40-80 days of gestation were divided into 2 groups and tested for the effects of intramammary infusion using the procedures of Examples 3-6 except that (A) the volume of excipient in each infusion was 5 ml and (B) each treatment infusion contained a 1% zinc salt of an N-methionyl bovine somatotropin (BST) (Group 1-100 mg; Group 2-40 mg) prepared by expression of recombinant DNA and purified essentially as described in Example 1A of U.S. Patent Appln. No. 787,873 filed Oct. 16, 1985 based on European Patent Appln. No. 177,478 published Apr. 9, 1986, both incorporated here by reference. Results are in Tables 19-20.

[4] = Group 1: total of 10 milligrams (2 mg per infusion)
[5] = Group 1: total of 10 milligrams, B = control mean
[6] = Group 2: total dose of 50 milligrams (10 mg per infusion)
[7] = Group 2: total dose of 50 milligrams, B = control mean
[8] = Group 1: total of 500 milligrams BST
[9] = Group 1: total of 500 milligrams BST (100 mg per infusion)
[10] = Group 2: total of 200 milligrams BST
[11] = Group 2: total of 200 milligrams BST (40 mg per infusion)

B1: Ovine Prolactin: ovine prolactin from Sigma Chemical Co. (Lot No. 26F-0076), comparative example (protein, UniProt P01240 31-229, looked up)
Prolactin: TPVCPNGPGNCQVSLRDLFDRAVMVSHYIHNLSSEMFNEFDKRYAQGKGFITMALNSCHTSSLPTPEDKEQAQQTHHEVLMSLILGLLRSWNDPLYHLVTEVRGMKGVPDAILSRAIEIEEENKRLLEGMEMIFGQVIPGAKETEPYPVWSGLPSLQTKDEDARHSAFYNLLHCLRRDSSKIDTYLKLLNCRIIYNNNC
DNA, Treatment Mean [1, 4]: 2526 mg
Dry Fat-Free Weight, Treatment Mean [1, 4]: 137.8 g
Dry Weight, Treatment Mean [1, 4]: 262.7 g
Wet Weight, Treatment Mean [1, 4]: 895.3 g
Dry Fat-Free Weight, % Increase, (A-B)/B [1, 5]: .88%
Dry Fat-Free Weight, Mean Increase (A-B) [1, 5]: 1.2 g
Dry Weight, % Increase, (A-B)/B [1, 5]: 1.0%
Dry Weight, Mean Increase (A-B) [1, 5]: 4.8 g
Wet Weight, % Increase, (A-B)/B [1, 5]: .6%
Wet Weight, Mean Increase (A-B) [1, 5]: 5.4 g
DNA, Treatment Mean [1, 6]: 3672 mg
Dry Fat-Free Weight, Treatment Mean [1, 6]: 189.2 g
Dry Weight, Treatment Mean [1, 6]: 343.4 g
Wet Weight, Treatment Mean [1, 6]: 1487.1 g
DNA, % Increase, (A-B)/B [1, 7]: 10.5%
DNA, Mean Increase (A-B) [1, 7]: 350 mg
Dry Fat-Free Weight, % Increase, (A-B)/B [1, 7]: 2.5%
Dry Fat-Free Weight, Mean Increase (A-B) [1, 7]: 4.7 g
Wet Weight, % Increase, (A-B)/B [1, 7]: 13.6%
Wet Weight, Mean Increase (A-B) [1, 7]: 178.6 g

B2: BST: N-methionyl bovine somatotropin prepared by expression of recombinant DNA (protein, UniProt P01246 27-217, looked up)
Somatotropin: AFPAMSLSGLFANAVLRAQHLHQLAADTFKEFERTYIPEGQRYSIQNTQVAFCFSETIPAPTGKNEAQQKSDLELLRISLLLIQSWLGPLQFLSRVFTNSLVFGTSDRVYEKLKDLEEGILALMRELEDGTPRAGQILKQTYDKFDTNMRSDDALLKNYGLLSCFRKDLHKTETYLRVMKCRRFGEASCAF
modifications: N-terminal Met
notes: N-methionyl bovine somatotropin prepared by expression of recombinant DNA
Average Milk Production, Treated Side (A) ([2]; BST 50 mg per infusion every third day, no later than fifth day before parturition (Group 3 per text), first 30 days after parturition): 10.9 kg/day
Average Milk Production, % Increase, (A-B)/B ([2]; BST 50 mg per infusion, no later than fifth day before parturition (Group 3 per text), B = control side, excipient only): 11%
Milk production of treated half-udders in excess of control half-udders ([2]; Group 4: BST 50 mg per infusion, treatments continued into last five days before parturition): 2%
DNA, Avg. % Increase/Animal [3, 8]: 10.5%
Dry Fat-Free Weight, Avg. % Increase/Animal [3, 8]: 7.9%
Dry Weight, Avg. % Increase/Animal [3, 8]: 10.7%
Wet Weight, Avg. % Increase/Animal [3, 8]: 9.8%
DNA, Treatment Mean [3, 9]: 2185 mg
Dry Fat-Free Weight, Treatment Mean [3, 9]: 146.7 g
Dry Weight, Treatment Mean [3, 9]: 207.6 g
Wet Weight, Treatment Mean [3, 9]: 790.1 g
DNA, % Increase, (A-B)/B [3, 8]: 6.4%
DNA, Mean Increase (A-B) [3, 8]: 131 mg
Dry Fat-Free Weight, % Increase, (A-B)/B [3, 8]: 3.6%
Dry Fat-Free Weight, Mean Increase (A-B) [3, 8]: 5.2 g
Dry Weight, % Increase, (A-B)/B [3, 8]: 8.9%
Dry Weight, Mean Increase (A-B) [3, 8]: 17.0 g
Wet Weight, % Increase, (A-B)/B [3, 8]: 7.3%
Wet Weight, Mean Increase (A-B) [3, 8]: 53.5 g
DNA, Avg. % Increase/Animal [3, 10]: 15.8%
Dry Fat-Free Weight, Avg. % Increase/Animal [3, 10]: 7.8%
Dry Weight, Avg. % Increase/Animal [3, 10]: 10.7%
Wet Weight, Avg. % Increase/Animal [3, 10]: 13.4%
DNA, Treatment Mean [3, 11]: 1371 mg
Dry Fat-Free Weight, Treatment Mean [3, 11]: 49.5 g
Dry Weight, Treatment Mean [3, 11]: 96.4 g
Wet Weight, Treatment Mean [3, 11]: 396.9 g
DNA, % Increase, (A-B)/B [3, 10]: 5.5%
DNA, Mean Increase (A-B) [3, 10]: 72 mg
Dry Fat-Free Weight, % Increase, (A-B)/B [3, 10]: 10.5%
Dry Fat-Free Weight, Mean Increase (A-B) [3, 10]: 4.7 g
Dry Weight, % Increase, (A-B)/B [3, 10]: 13.3%
Dry Weight, Mean Increase (A-B) [3, 10]: 11.3 g
Wet Weight, % Increase, (A-B)/B [3, 10]: 14.9%
Wet Weight, Mean Increase (A-B) [3, 10]: 51.5 g
